The first assay concerns the target HLA-B*07 (human). Description: UV peptide exchange ELISA; ++ = yield >20%. Background: In an ELISA, binding on a coated surface is turned into a signal by an enzyme label.
In the case of SQRPPATSQA, the peptide exchange yield is 20 to 50%.

The molecule KIIASGNHL came in with a peptide exchange yield of 20 to 50%.

IPVSHPVLTF displayed a peptide exchange yield of 20 to 50%.

As to MAGPAIHTAPM, the peptide exchange yield was 20 to 50%.

SVPVATVEL returned a peptide exchange yield of 20 to 50%.

The molecule RTKEEINEL displayed a peptide exchange yield of 20 to 50%.

TDTPSTTPTTI yielded a peptide exchange yield of 20 to 50%.

In turn, FVPPSGPSNPM returned a peptide exchange yield of 20 to 50%.

HAAASFETL: the peptide exchange yield was 20 to 50%.

The molecule KAHVRIEL yielded a peptide exchange yield of 20 to 50%.

Regarding REPIMKADML, the peptide exchange yield was in the range of 20 to 50%.

On to SPFWIHQA, for which the peptide exchange yield fell in the range of 20 to 50%.

As to MTLPATTLTL, the peptide exchange yield fell in the range of 20 to 50%.

With YGPYGSGSGW, the peptide exchange yield lay in the range of 20 to 50%.

Regarding SVIGPNSRL, the peptide exchange yield fell in the range of 20 to 50%.

In turn, KPRGPIDI returned a peptide exchange yield of 20 to 50%.

IPVAIKEL returned a peptide exchange yield of 20 to 50%.

Regarding VPAHLVAA, the peptide exchange yield is 20 to 50%.

MARTGGMVVI gave a peptide exchange yield of 20 to 50%.

The molecule RPSGTAGAALLA came in with a peptide exchange yield of 20 to 50%.

IPFADVKSF gave a peptide exchange yield of 20 to 50%.

As for LPELPTTLTF, the peptide exchange yield fell in the range of 20 to 50%.

ASKILETSL: the peptide exchange yield lay within 20 to 50%.

As for IPENRVVSY, the peptide exchange yield is 20 to 50%.

In turn, APAAPAAVPS registered a peptide exchange yield of 20 to 50%.

Regarding FTVSSSSAM, the peptide exchange yield fell in the range of 20 to 50%.

As for MPPLLIVAF, the peptide exchange yield was 20 to 50%.

EPLSVTASY returned a peptide exchange yield of 20 to 50%.

In turn, SPAKQFNIY yielded a peptide exchange yield of 20 to 50%.

Regarding VIINNPISL, the peptide exchange yield lay in the range of 20 to 50%.

GAYDKARYL gave a peptide exchange yield of 20 to 50%.

A further assay deals with HLA-B*07 (human). Description: UV peptide exchange ELISA; +++ = yield >50.
Take APEKARAFL: the peptide exchange yield was in the range of 50 to 75%.

As for HVRPQTNCI, the peptide exchange yield was in the range of 50 to 75%.

KPQSTISGL returned a peptide exchange yield of 50 to 75%.

APFAPLHGGGSL registered a peptide exchange yield of 50 to 75%.

On to VPSCGRSVEGL, for which the peptide exchange yield lay within 50 to 75%.

SALPTTISF had a peptide exchange yield of 50 to 75%.

The molecule RPEDGRPRL yielded a peptide exchange yield of 50 to 75%.

Molecule TSPLPPTV came in with a peptide exchange yield of 50 to 75%.

As for HPSQESPTL, the peptide exchange yield was 50 to 75%.

In turn, MPMQDIKMI showed a peptide exchange yield of 50 to 75%.

APVGGNVTSSF gave a peptide exchange yield of 50 to 75%.

In turn, MPMQDIKMILKM gave a peptide exchange yield of 50 to 75%.

The molecule GPASDHPSL gave a peptide exchange yield of 50 to 75%.

For APCNGNVAV, the peptide exchange yield is 50 to 75%.

For FPHMATTAF, the peptide exchange yield was 50 to 75%.

Consider PEKARAFL, for which the peptide exchange yield lay within 50 to 75%.

On to LPMSKRQEY, for which the peptide exchange yield was in the range of 50 to 75%.

In turn, KEDNPSGHTYTL showed a peptide exchange yield of 50 to 75%.

Values taken from patent publication US20200040057A1 (IMMATICS BIOTECHNOLOGIES, published 2020).
